Test results as given in patent publication US8088387B2, “Method of targeting specific cell populations using cell-binding agent maytansinoid conjugates linked via a non-cleavable linker, said conjugates, and methods of making said conjugates” (Immunogen Inc., priority 2003, dated 2012).

Assays:
[1] = test system: L1210 mouse leukemia system; settings: cited from earlier work
[2] = test system: L1210 murine leukemic cell suspension; settings: in vitro; cited from earlier work
[3] = test system: human B-16 melanocarcinoma system; settings: cited from earlier work
[4] = test system: P388 lymphocytic leukemia system; settings: in vivo; cited from earlier work
[5] = test system: human acute lymphoblastic leukemia line C.E.M.; settings: cited from earlier work
[6] = human, in vivo; cited from earlier work
esterase = esterase cleavage of the C-3 ester; assay type: in vitro ADME
From the text: Some linkers can be cleaved by esterases. Again only certain esters can be cleaved by esterases present inside or outside cells. Esters are formed by the condensation of a carboxylic acid and an alcohol. Simple esters are esters produced with simple alcohols, such as aliphatic alcohols, and small cyclic and small aromatic alcohols.

L1210 cells = settings: treatment of L1210 cells in vivo; cited from earlier work
[7] = test system: LY5178 murine leukemic cell suspension; settings: in vitro; cited from earlier work
[8] = test system: Lewis lung carcinoma system; settings: cited from earlier work
[9] = test system: human nasopharyngeal carcinoma cells; settings: cited from earlier work
[10] = test system: P388 murine leukemic cell suspension; settings: in vitro; most sensitive line; cited from earlier work
[11] = Pharmacokinetic Studies of huC242-SPP-DM1 and huC242-SCC-DM1 conjugates inCD-1 Mice Plasma clearance curves and Pharmacokinetic parameters
From the text: Table printed on a drawing sheet, FIG. 11
Title: Pharmacokinetic Studies of huC242-SPP-DM1 and huC242-SCC-DM1 conjugates inCD-1 Mice Plasma clearance curves and Pharmacokinetic parameters
First reader's note: Rows without -DM1 (huC242-SMCC, huC242-SPP) appear to be the antibody component of the same conjugates, as in the plot legend; study in CD-1 mice.

[12] = acute toxicity test, single intravenous dose; assay type: in vivo, female CD-1 mice
Description: Maytansinoid conjugates prepared with non-cleavable linkers such as SMCC show an unexpected increased tolerability in mice compared with conjugates prepared with cleavable disulfide linkers. An acute toxicity test with a single intravenous dose was carried out in female CD-1 mice. A comparison of the tolerability of a huC242-SMCC-DM1 conjugate (non-cleavable) with huC242 conjugates prepared with linkers containing cleavable disulfide bonds was conducted by monitoring the death of mice (FIGS. 12A and B) and signs of toxicity (FIGS. 12C and D) over a series of four escalating doses of each conjugate. The maximum tolerated dose (MTD) for the SMCC-DM1 conjugate was greater than the highest dose tested (150 mg/kg) while the MTD for the disulfide-linked conjugate SPP-DM1 was in the range of 45-90 mg/kg.

COLO205 cells = test: cell cycle arrest by flow cytometry; assay type: cell-based, human; settings: 30 hours post-treatment
Description: Maytansinoid conjugates are thought to impart their cell destroying activity through the inhibition of microtubule polymerization. This inhibition of microtubule polymerization leads to an arrest of the cell cycle principally at G2/M. The antigen-dependent arrest of cells at G2/M by antibody-maytansinoid conjugates can be monitored by flow cytometry analysis (FIG. 13). Treatment of COLO205 cells with huC242-SPP-DM1 or huC242-SMCC-DM1 conjugate results in a complete G2/M arrest by 6-10 hours. […] The difference in the durability of the activity of these two conjugates is also reflected in percentage of dead cells at the 30 hour time point, as judged by a dye exclusion assay using trypan blue.

Namalwa cells = test: cell destroying activity, antigen-negative cells (bystander study); assay type: cell-based
From the text: (§1) An additional aspect of conjugates prepared with non-cleavable linkers compared to conjugates that have cleavable disulfide linkers is the absence of activity toward antigen-negative cells when in close proximity to antigen-positive cells, termed here the bystander effect. That is, the conjugates prepared with non-cleavable linkers have minimal bystander activity. […] This minimal bystander activity of the non-cleavable conjugate, as measured in this in vitro assay, may contribute to the increased tolerability of conjugate with non-cleavable linkers observed in acute toxicity studies.

COLO 205 cell line = test: cell destroying activity, antigen-positive cells (bystander study); assay type: cell-based, human; settings: COLO 205 cultured separately
From the text: as §1

[13] = plasma clearance of conjugates; assay type: in vivo; settings: plasma, conjugate, FIG. 11
From the text: This is in sharp contrast to plasma clearance of conjugates prepared with relatively labile disulfide bonds such as huC242-SPP-DM1. […] The non-cleavable SMCC linkage is therefore much more resistant to maytansinoid-linker cleavage activities present in vivo than the SPP-DM1 conjugate. […] This increased exposure could have substantial impact on drug efficacy in some cases.

[14] = in vitro clonogenic / indirect cytotoxicity assays, cell line not given; assay type: cell-based; settings: for cytotoxicity in clonogenic assays in vitro: FIGS. 9, 22, 28
From the text: Cell-binding agent maytansinoid conjugates of the invention can be evaluated for their ability to suppress proliferation of various cell lines in vitro. For example, cell lines such as the human colon carcinoma line COLO205, the human melanoma cell line A375, the human myeloid leukemia cell line HL60, the human breast carcinoma line SKBR3, or the human epidermoid carcinoma cell line KB can be used for the assessment of cytotoxicity of these conjugates. Cells to be evaluated can be exposed to the compounds for 24 hours and the surviving fractions of cells measured in direct assays by known methods. (See, e.g. Goldmacher et al., 135 J. Immunol. 3648-3651 (1985), and Goldmacher et al., 102 J. Cell Biol. 1312-1319 (1986).) IC50 values can then be calculated from the results of the assays.

COLO 205 cells = test: indirect FACS binding assay on COLO 205 cells; set-up: species or system human; settings: higher than free huC242 antibody; COLO 205 cells
Description: The inventors carried out binding and cytotoxicity studies on the huC242-non-S-containing non-cleavable linker-DM1 conjugate. First, the binding affinities of huC242 antibody, huC242-SMNP-DM3, and huC242-non-S-containing non-cleavable linker-DM1 to COLO 205 cells were compared. 5×10^3 cells per well were used, with a three hour primary incubation on ice. The huC242-non-S-containing non-cleavable linker-DM1 conjugate had about a two-fold higher apparent dissociation constant than free antibody (see FIG. 23).

COc1cc2cc(c1Cl)N(C)C(=O)C[C@H](OC(=O)[C@H](C)N(C)C(C)=O)[C@]1(C)O[C@H]1[C@H](C)[C@@H]1C[C@@](O)(NC(=O)O1)[C@H](OC)/C=C/C=C(\C)C2 [Maytansine]
inhibitory activity in vivo [1]: significant inhibitory activity
inhibitory doses [2]: 10^−3 to 10^−1 μg/ml
inhibitory activity in vivo [3]: significant inhibitory activity
dosage range over which tumor growth was inhibited [4]: 50- to 100 fold
lowest inhibitory concentration [5]: 10^−7 μg/ml
clinical outcome / adverse effects [6]: not favorable due to a number of side effects
cleavage of the ester at C-3 by esterases (esterase): no esterase that cleaved the ester at C-3
cells accumulating in mitosis (L1210 cells): 67%
inhibitory doses [7]: 10^−3 to 10^−1 μg/ml
inhibitory activity in vivo [8]: significant inhibitory activity
inhibition of in vitro growth [9]: active inhibitor
inhibitory doses [10]: 10^−3 to 10^−1 μg/ml

B1: huC242-SPP-DM1: huC242 DM1 conjugate with relatively labile cleavable disulfide linker SPP (conjugate, chains of the INN, looked up)
VH: QVQLVQSGAEVKKPGETVKISCKASDYTFTYYGMNWVKQAPGQGLKWMGWIDTTTGEPTYAQKFQGRIAFSLETSASTAYLQIKSLKSEDTATYFCARRGPYNWYFDVWGQGTTVTVSS
VL: DIVMTQSPLSVPVTPGEPVSISCRSSKSLLHSNGNTYLYWFLQRPGQSPQLLIYRMSNLVSGVPDRFSGSGSGTAFTLRISRVEAEDVGVYYCLQHLEYPFTFGPGTKLELK
modifications: DM1 via SPP disulfide linker
AUC | [11]: 9205.7 µg·h/mL
CL | [11]: 1.1 mL/h/kg
Cmax | [11]: 191.4 µg/mL
Vss | [11]: 0.0926 L/kg
t1/2 | hour [11]: 49.8 h
time by which lethal toxicity was observed for all mice ([12]; at 150 mg/kg, post-treatment): ≤ 96 h
survival / lethal toxicity ([12]; at 150 mg/kg, single intravenous dose): lethal toxicity was observed for all mice
maximum tolerated dose (MTD) ([12]; single intravenous dose, female CD-1 mice): 45 to 90 mg/kg
durability of cell cycle arrest (COLO205 cells): escape from cell cycle arrest and reinitiate cell division
cell destroying activity (Namalwa cells; Namalwa cultured separately): no activity
bystander cell destroying activity toward Namalwa cells (Namalwa cells; co-cultures of COLO 205 and Namalwa cells): dramatic cell destroying activity
cell destroying activity (COLO 205 cell line): potent cell destroying activity
half-life for clearance [13]: 40 to 50 h

B2: huC242-SIAB-DM1: huC242 conjugate of DM1 synthesized with the non-cleavable linker SIAB (conjugate, chains of the INN, looked up)
VH: B1 VH
VL: B1 VL
modifications: DM1 via SIAB linker
cytotoxicity in clonogenic assays in vitro [14]: potent and antigen-specific cytotoxicity

B3: huC242-non-S-containing non-cleavable linker-DM1: huC242 conjugated with a maytansinoid active ester forming a non-sulfur-containing non-cleavable linker (conjugate, chains of the INN, looked up)
VH: B1 VH
VL: B1 VL
modifications: DM1 via non-sulfur non-cleavable linker
apparent dissociation constant relative to free antibody (COLO 205 cells): two
in vitro cytotoxicity compared with huC242-SMNP-DM3 ([14]; FIG. 22): comparable to huC242-SMNP-DM3
cytotoxicity in clonogenic assays in vitro [14]: potent and antigen-specific cytotoxicity
IC50 ([14]; in vitro cytotoxicity, FIG. 22): 7 pM
